Results reported in patent US20230054375A1 (UAB RESEARCH FOUNDATION, published 2023).

Biological target: CD47 receptor (plate-coated and soluble antigen of the affinity ELISA) (UniProt Q08722 19-141, limits assumed)
Assay: ELISA of equilibrated mAb/receptor mixtures on CD47-coated plate (Friguet method)
Method: Briefly, the 96-well plate was coated with 200 ng of CD47 receptor in 100 μL of coating buffer (50 mM carbonate-bicarbonate buffer, pH 9.6) and incubated at 4° C. overnight. The plate was washed three times with PBS containing 0.05% Tween 20, and blocked with 2% BSA (bovine serum albumin). […] After incubating at 37° C. for 1 hr, 100 μL of HRP goat anti-mouse IgG secondary antibody (Abcam, Cambridge, Mass.) at concentration of 50 ng/mL was added to each well and incubated at 37° C. for 1 hr, followed with TMB substrate for color development. The reaction was stopped by adding 100 μL of 1M sulfuric acid. The absorbance was recorded with BioTek plate reader at a wavelength of 450 nm.

Chain of CD47 receptor (plate-coated and soluble antigen of the affinity ELISA) (Q08722 19-141 limits assumed): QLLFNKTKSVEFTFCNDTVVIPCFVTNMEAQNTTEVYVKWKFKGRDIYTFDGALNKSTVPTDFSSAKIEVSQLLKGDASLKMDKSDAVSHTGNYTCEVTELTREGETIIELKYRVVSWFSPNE

B1: anti-CD47 monoclonal antibody (IgG2b/kappa) (antibody, V domains shown)
VH: EVQLVESGGGLVQPKGSLKLSCAASGFTFNTYAMNWVRQAPGKGLEWIARIRSKSNNYATYYADSMKDRFTISRDDSQSMLYLQMNNLKTEDTAMYYCVRPAQGAMDYWGHGTSVTVSS
VL: DIVLTQSPATLSVTPGDSVSLSCRASQRISNNLHWYQQKSHESPRLLIKYSSQSISGIPSRFSGSGSGTDFTLSINSVETEDFGMYFCQQSNAWPYTFGGGTKLEIRR
notes: The antibody was labelled with Alexa Fluor 647 for flow cytometry and confocal imaging; also called anti-CD47 mAb; CD47 mAb
- Kd: 2.3 nM
